According to the DeepSol protein solubility set:

Test: soluble on expression in E. coli; label from the status in PepcDB or PDB records

| Sequence | soluble on expression in E. coli |
| --- | --- |
| MKNFHPTGNCPVRDVISRLGDKWSMLVLITLNANGTMRFSDIHKTIEDISQRMLTVTLRTLESDGLIERKIYAEVPPRVEYYLTDTGGTLIPHIEGLVGWALENMDTILEHRKSN | not soluble |
| MKNIAAAGVLERIRRLAPQASVPPYRTVEEWREWQLAEGRKRSEEINRQNHQLRVEKILNRSGIQPLHSKCSFANYQVQNDGQKYALSQAKSIADELMTGCTNFVFSGKTGTGKNHLAAAMGNRLMAKGRSVIIVTVSDVMSVLHDSYDNGKSGEKFLQELCSVDLLVLDEIGVQRETKNEQVVLHQIIDRRTASLCSVGMLTNLNHAAMSTLLGERIMDRMTMNGGRWVTFNWDSWRPNVSNMRVVK | soluble |
| MKNIHSIEFYTGSKEELLPDFEKDFPYIASRAELDKYIGGYVPWHWHRTVELFYMESGSIEYDTPGGKILFPAGSGGMINPNVLHMTKAISQREKNIQLLHIFDVSLLAGEQGSRIEQKYIAPVITAPQIEVIPLFPGNAEEERILKLLAASFRLSSDEFGYEIKLREALTEIWLMLFELSCSMREKKGEHNKSNDKIKLMMIYIHEHYREKISILELAAAAYLSERECYRVFHDCLHMTPVEYITTYRLQIACQMLAKGQEPITVISHECGLGSSSYFGKVFREYAYCSPTEYRKKWQNSDM | soluble |
| MKNKDSLHVSRRRFLAQLGGLTVAGMLGPSLLTPRSARAADAVAPGAATKEGILTGSHWGAIRATVVDGRFVAAKPFEQDKYPSKMIAGLPDHVHNAARIRYPMVRVDWMRKGHQSDTSQRGDNRFVRVSWDEALDLFYQELERVQKTYGPSALLTASGWQSTGMFHNASGMLARAIALHGNSVSTGGDYSTGAAQVILPRVVGSMEVYEQQTSWPLVLQNSKTIVLWGSDMVKNQQANWWCPDHDVYQYYEQLKEKVASGAISVISIDPVVTSTHDYLGRDKVKHIAINPQTDVPLQLALAHTLYSEKLYDKNFLDNYCVGFDQFLPYLLGEKDGQPKDAAWAEKLCGIDADTIRALARQMAGDRTQIIAGWCVQRMQHGEQWSWMVVVLAAMLGQIGLPGGGFGFGWHYNGAGTPGRKGIILSGFSGSTTVPPVHDSTDYKGYSSTIPIARFMDAILEPGKIINWNGKSVKLPPLKMCVFAGTNPFHRHQQINRIIEGWRKLETVIAIDNQWTSTCRFADIVLPATTQFERNDLDQFGNHSNRGIIAMKQVVSPQFEARNDFDIFRDLCRRFNREAAFTEGLDEMGWLKRIWQEGSQQGKGRGIHLPIFEVFWNQQEYIEFDHPQMFVRHQAFREDPDLEPLGTPSGLIEIYSKTIADMQYDDCQGHPMWFEKIERSHGGPGSQRWPLHLQSVHPDFRLHSQLCESETLRQQYAVGGKEPVFINPQDASARGIRNGDIVRVFNARGQVLAGAVVSDRYAPGVARIHEGAWYDPDKGGDLNALCKYGNPNVLTLDIGTSQLAQATSAHTTLVEIEKYTGPMDNVTAFNGPVEMVAQCEYVPASQGNPHD | not soluble |
| MKNKLFASALCAAALFTTNAMAKDQELYFYNWSEYIPSEVLEDFTKETGIKVIYSTYESNESMYAKLKTQGAGYDLVVPSTYFVSKMRKEGMLQEIDHSKLSHFKDLDPNYLNKPFDPGNKFSIPYIWGATGIGINTDMLDKKSLKNWGDLWDAKWAGQLMLMDDAREVFHIALSKLGYSPNTTNPKEIKAAYRELKKLMPNVLVFNSDFPANPYLAGEVSLGMLWNGSAYMARQEGAPIQIIWPEKGTIFWMDSISIPAGAKNIEAAHKMIDFLLRPENAAKIALEIGYPTPVKTAHDLLPKEFANDPSIYPPQSVIDNGEWQDEVGEASVLYDEYFQKLKVND | soluble |
| MKNQLIDRLTRYTTIDTQSDPKSTTTPSTEKQWDLLHLLEKELQQLGLPTDLDENGYLFATLESNIDVDVPTVGFLAHVDTSPDFNASNVKPQIIENYDGKPYKLGNTKRVLDPKVFPELNSLVGHTLMVTDGTSLLGADDKAGIVEIMEAICYLQEHPEIKHGTIRIGFTPDEEIGRGPHKFDVDRFNADFAYTMDGSQYGELQYESFNAAEAVITCHGVNVHPGSAKNAMVNAIRLGEQFDSLLPDSEVPERTEGYEGFYHLMNFEGTVEKATLQYIIRDHDKKQFELRKKRILEIRDDINAHFENYPVKVDISDQYFNMAEKILPLPHIIDIPKRVFAKLDIPANTEPIRGGTDGSQLSFMGLPTPNIFTGCGNFHGPYEYASIDVMEKAVQVIIGIVEDIAENH | not soluble |
| MKNVTRILTLSNGYHLWSHTSNLGGRTKLLCLHGGPGDTHEVFERFGPELADLDIEVTMYDQLGSWYSDTPNWDDDAIRQQYLTEDYYLSEVDEVRQQLGYKHCYLAGHSWGGMLAMTYAADHQDQLDGLIIISMIDNIADYLKRMHAIRTAEFSPAENAFMLAIEKRQQWNNPHYRQLITHLYHQYINRCHPSMMQHQLDIQAKPVYNHFQGDNEFVVYGVLDDWDFSDTLATIQVPTLLMFADHETMPLATAERMQQRMPNAKLVVTPDSGHNHMVDNPAVFFTYLRNYFSDQLGR | not soluble |
| MKPALHAIDATLPAPPTYTPAGNECALFEHAWKRRVPLLLKGPTGCGKTRFVAHMAARLGLPLFTVSCHDDLTAADLTGRYLLKGGETVWVDGPLTRAVRQGGICYLDEVVEARKDVAVVLHPLADDRRVLPLERTGEELQAPPHFMLVVSYNPGYQSLLKALKPSTRQRFAAIEFGFLAPEQEIAVVAAESGLPSERVAPLVALAGRLRKLKGHDLEEGVSTRLLVYCASLISEGLPVRDAVLAGLIEPLTDDADVKAALIEVAGVVIGLEHHHHHH | soluble |
| MKPKHLLCLSTVVAGLALFSTMTHSVLADDASNPDTILMNNNQANLQRDALVQKLDEGHQQLEAIKHEAKGTDIEATVNKAIDAVDHMKSSIRFNTETIYDFSSIGARVEALSDAIKAIVFSTTQLTHKVEKAHTDTGFAITKLVIRIIDPFASVDAIKAQVQEIKALEEKVINYPDLQPTDRATIYTKAKLNKAIWNTRLERDKKVLGIKSFDVYNRLNKAITHAVGVQLNPTTTVQQVDDEVIAVQNALETALKSLEHHHHHH | soluble |
| MKPKKLSLLLTILPMIIAATGCHSQQESKVDITPHCINLQADSLYRQAMTLMESSCDVDSTRKCIRFLDKALAIDSLNPDYYGMKAKLLSEMGELDSALYIQTLAMEKNAITGEYLFQLGLLQAAKDMHAEAHESFGKSKVFLQAVLKQYPDSLGAFILAEAANSLYENKDSLFMRNIDEIRKRFPERLLEIEMTRRVKPHSLVNQIRRIKIEKDYNIDFDMDSLVEATVNKDLEHHHHHH | not soluble |
| MKPKVLLAGGTGYIGKYLSEVIENDAELFTISKYPDNKKTDDVEMTWIQCDIFHYEQVVAAMNQIDIAVFFIDPTKNSAKITQSSARDLTLIAADNFGRAAAINQVKKVIYIPGSRYDNETIERLGAYGTPVETTNLVFKRSLVNVELQVSKYDDVRSTMKVVLPKGWTLKNVVNHFIAWMGYTKGTFVKTEKSHDQFKIYIKNKVRPLAVFKIEETADGIITLILLSGSLVKKYTVNQGKLEFRLIKESAVVYIHLYDYIPRLFWPIYYFIQAPMQKMMIHGFEVDCRIKDFQSRLKSGENMKYTK | not soluble |
| MKPLFGKVGVFGVGLLGGSVALGIKERFLAEEVHAYDQDPMALEKVLFLGVADRVHTEVGPWVGELDLGILAAPVGALAELGKALAPWAHPESLWTDVGSVKAKVVAALEGLLPHYLGGHPMAGSERAGVENAHAGLLQNAVWVLTPTERTSPRAREGVRGLVEALGAYPLEMPPGRHDELVARVSHLPYLLAVALNRMVAQSPHRDLLMFLAAGGFRDLTRVASGSPRMSRDMVVENKEALKEAIEELREVLLELEGLLDEPEGLLRAAEEAKRTRDSLPIVRRSLLPEMHDLVVQVPDRPGEIARIATALGEAGVNIKDIEVLTIREAAGALRLSFATREERERARRVLQEAGYRLP | soluble |
| MKPLLETIDTRFGTTNKHAFSRGNTLPYTGVPFGMNYFVPQTSDQDGSWFFDPHLPIFQGIRLTHQPSPWIGDYSWLLLTPVTSQLGGDSLFHRQSSYDIDKACFQPHYLKLFSLRYQIETQLTPTCYGASIRLNQKQGKALSLYLHAADELTVEQVDKRTLALRQEGKTETNKNSLTMFTLEHHHHHH | not soluble |
| MKPVKSGLDSISKYLRTKKEVGRRKIGLLVDGPNILRKEFDVNLEEIRDVLKDYGNIKIGRVFLNQYASDKLVEAIENHGLEPIICSSDVDVRLAVEGMELVYNPNIDTLAIVTRDADFKPLLNKANEHGKETIIFGVEPGFSTALKNSADYVILMGKNHMSGYDDEDEEGKPDASERGEYHEEYPEDEYGESMEKT | not soluble |
